Non-standard residues stand in square brackets, D forms with d. No end group written: not given here. *: point of attachment. Biotin = O=C1N[C@H]2[C@H](CS[C@H]2CCCCC(=O)*)N1; Bpa = N[C@@H](Cc1ccc(C(=O)c2ccccc2)cc1)C(=O)O; Tic = O=C(O)[C@@H]1Cc2ccccc2CN1; Ac6c = NC1(C(=O)O)CCCCC1
B1: S443 (peptide)
chain 1: ESFYDWFERQLGGGGK
chain 2: WVQCEVYGRGCPS
B2: S246 (peptide)
chain 1: ACAWPTYWNCGGGGX
chain 2: FHENFYDWFVRQVSKKX
modifications: not fully specified; listing feature
B3: S563 (peptide)
chain 1: SLEEEWAQIQCEVWG
chain 2: R[dN][dC]SESFYDWFERQL
modifications: cysteine pairing not given here
B4: S252 (peptide)
chain 1: SDGFYNAIELLSX
chain 2: SDGFYNAIELLSX
modifications: listing feature
B5: S442 (peptide)
chain 1: ESFYDWFERQLGGGGK
chain 2: AWVQCEVYGRGCPS
B6: S440 (peptide)
chain 1: ESFYDWFERQLGGGGK
chain 2: EWAWVQCEVYGRGCPS
B7: S439 (peptide)
chain 1: ESFYDWFERQLGGGGK
chain 2: QEWAWVQCEVYGRGCPS
B8: S231 (peptide)
chain 1: FHENFYDWFVRQVSKKGGGX
chain 2: FHENFYDWFVRQVSKKGGGX
modifications: listing feature
B9: S217 (peptide)
chain 1: SDGFYNAIELLS
chain 2: SDGFYNAIELLS
B10: S301 (peptide)
chain 1: XDWLQRNANFYDWFVAEL
chain 2: XDWLQRNANFYDWFVAEL
modifications: listing feature
B11: S527 (peptide)
chain 1: H[Ac6c]CAQE[dW]GSEL
chain 2: [Tic]QCSGSESFYDWFERQL
modifications: not fully specified; printed as H-Acy-CAQEwGSEL-Tic-QCSGSESFYDWFERQL; ends and bridges not checked
B12: S233 (peptide)
chain 1: FHENFYDWFVRQVSKKX
chain 2: SDGFYNAIELLSX
modifications: listing feature
B13: S360 (peptide)
chain 1: XDWLQRNANFYDWFVAEL
chain 2: XDWLQRNANFYDWFVAEL
modifications: listing feature
B14: S546 (peptide)
chain 1: SLEEEWAQVECEV
chain 2: [Bpa]GRGCPSGSLDESFYDWFERQ[Bpa]GK(Biotin)
modifications: not fully specified (bridges); cysteine pairing not given here; also: chains 1 and 2 form one continuous chain
B15: S218 (peptide)
chain 1: AFYDWFAKKX
chain 2: AFYDWFAKKX
modifications: listing feature
B16: S255 (peptide)
chain 1: SDGFYNAIELLSGGGX
chain 2: SDGFYNAIELLSGGGX
modifications: listing feature
B17: RB517 (protein)
chain: DYKDDDDKHLCVLEELFWGASLFGYCSGGGSGGSHLCVLEELFWGASLFGYCSGAAAGAPVPYPDPLEPRAA

Each binder was assayed against T1, human insulin receptor (HIR) (human, UniProt P06213) (assay: competition).

Binder	Kd [nM]
NFYDWFVAELG [S243]	2000
ANFYDWFVAELG [S242]	20000
B1	170
B2	50
SIEEEWAQIKCDVWGRGCPSY [S593]	2.2
HDPFYSMMKSLLK [S120]	20
SLEEEWAQIEEVWGRGPSESFYDWFERQLG [S569]	0.15
GRVDWLQRNANFYDWFV [S251]	56000
LEEEWAQIQREVWHSPASESFYDWFERQL [S595]	0.62
GSLDESFYDWFERQLGXK (listing feature) [S550]	40
EGWDFYSYFSGLLASVT [S259]	7700
FHENFYDWAVRQVSKK [S223]	> 2000
LAQEWAWVQCEVYGRGCPSESFYDWFERQL [S495]	2.6
Ac-SLEEEWAQIECEVYGRGCPSESFYDWFERQL (ends and bridges not checked) [S597]	0.0085
SLEEEWAQVECEVYGRGCPSESFYDWFERQL [S530]	0.008
RGTRSDPFYHKLSELLQGH [S368]	> 20000
B3	0.014
SGSLDESFYDWFERQLGKK [S372]	200
WFYDWFWE [S315]	68
SLEEEWAQVECEVYGRGCPSGGSGGSGLLDESFYHWFDRQLR [S510]	0.062

Binder	Kd [nM]
LDQEWAWVQSEVYGRGSPSESFYDWFERQL [S509]	5.7
B4	440
SLEEEWAQIQHELYGPAESESFYDWFERQL [S596]	0.045
PLCFLQELFGGASLGGYCSG [S262]	19000
SLEEEWAQIECEVWGRGCSGSLDESFYDWFERQL [S561]	0.018
B5	160
HETFYSMIRSLAK [S117]	27
FHENFYDWFVRQVSKKXXSDGFYNAIELLS (not fully specified; listing feature) [S273]	15
SLEEEWAQIECEVYGRGCPSESFYDWFERQLG [S554]	0.0064
B6	99
GIISQSCPESFYDWFAGQVSDPWWCW [S326 (G33)]	590
HPTSKEIYAKLLK [S122]	93
PLRESRNFYDWFVQQLE [S366]	370
B7	46
SLEEEWAWVECEVYGRGCPSGSLDESFYDWFERQL [S532]	0.037
HHHHHHKLDQEWAWVQCEVYGRGCPSESFYDWFERQLG [S481]	1.3
B8	270
B9	3900
B10	640
FHENFYDWFVRAVSKK [S107]	1000

Binder	Kd [nM]
TGHRLGLDEQFYWWFRDALSG [S265]	110
FHENFADWFVRQVSKK [S220]	> 2000
SLEEEWAQVECEVYGRGCSGSLDESFYDWFERQLG [S549]	0.013
SLEEEWAQVECEVYGRGCPSGSLDESFYHWFERQLG [S542]	0.027
SLEQEWAQVECEVYGRGCPSGSLDESFYDWFERQLG [S538]	0.038
SLEEEWAQVKCEVYGRGCPSGSLDESFYDWFERQLG [S540]	0.013
SLELEWAQVECEVYGRGCPSGSLDESFYDWFERQLG [S539 (printed S519)]	0.098
B11	2.4
B12	260
HHHHHHKSLEEEWAQVECEVYGRGCPSGSLDESFYDWFERQLG [S524]	0.011
B13	990
SIEEEWAQIKCDVWGRGCPSESFYDWFERQL [S517]	0.006
SLEEEWAQIQCEVWGRCSESFYDWFERQL [S564]	0.013
SIEEEWAQIKCDVWGRCSESFYDWFERQL [S562]	0.018
IQGWEPFYGWFDDVVAQMFEE [S264]	190
B14	26
B15	11000
QLEEEWAGVQCEVYGRECPS [S226]	16000
B16	16

Biological target: T1, human insulin receptor (HIR)
Assay: competition
Remark: another data set of the same source

Binder	Kd [nM]
MADYKDDDDKWLDQEWAWVQCEVYGRGCPSAAAGAPVPYPDPLEPRPG [RB540 (D8)]	~100
B17	60

— patent publication US20110124556 (published 2011)
